Data published in patent publication US5607850A, “Enzyme from microbial source: phthalyl amidase” (Eli Lilly and Company, priority 1995, dated 1997).

How the values were obtained:
[1] = Effect of pH on phthalyl amidase activity; type: biochemical
Procedure: The effect of pH on the reaction rate of the analytical scale purified enzyme was determined using phthalamido carbacephem (III) as substrate. [drawing 5]
A typical reaction mixture consisted of 1 ml total volume and contained 0.1 mM III, 0.1 μM phthalyl amidase in 50 mM potassium phosphate buffer (pH 5.5-9.0) at 32° C. for 20 minutes. The reactions were stopped by the addition of 1 ml methanol. After removal of precipitate by centrifugation, an aliquot of the supernatant fraction (typically 30 μl) was monitored for the beta-lactam nucleus and phthalic acid by HPLC using a Zorbax C8 column (0.46×15 cm; MacMod Analytical Inc., Chadds Ford, Pa.). The two reaction products were eluted by a mobile phase constructed as continuous mixed gradients from (a) 1% ACN (acetonitrile)/0.2% TFA (trifluoroacetic acid) and (b) 80% ACN/0.2% TFA as follows: 1) 0% (b), 3min; 2) 0-50% (b), 0.5 min; 3) 50-100% (b), 3 min; 4) 100% (b), 2.5 min; 5) 100-1% (b), 0.1 min; and 6) 0% (b), 5 min. At a flow rate of 1.5 ml/min, retention times of the beta-lactam nucleus and phthalic acid, as measured at 254 nm, were 2.3 and 7.2 min, respectively.

[2] = Temperature stability of phthalyl amidase; type: physicochemical; conditions: pH 8.2; for enzyme activity retained: 48 hours
Procedure: The phthalyl amidase enzyme was also tested for stability at varying temperature. The enzyme was incubated at pH 8.2 in the temperature range of 4°-50° C. for 48 hours in 50 and 200 mM phosphate buffer. […] In 200 mM buffer, 80% of the enzyme activity was retained in temperatures up to 35° C. and 30% of the enzyme activity was retained after 48 hours incubation at 40° C.

[3] = Isoelectric focusing of phthalyl amidase; type: physicochemical
Procedure: The molecular weight of the phthalyl amidase was determined to be 49,000 by electrospray mass spectrometry. The enzyme is monomeric with an isoelectric point estimated by isoelectric focusing to be pH 5.5.

[4] = Phthalyl amidase specific activity with chromogenic substrate (II) during purification (Tables 2 and 3); type: biochemical
Procedure: The assay reaction mixture (1 ml) consisted of 0.3 μmol of the chromogenic substrate (II) and 0.001-0.5 μg of enzyme preparation in 50 mM potassium phosphate buffer, pH 8.0 (buffer A). The enzymatic reaction was conducted at 30° C. for 10 minutes and the appearance of product was monitored at 380 nm (or 430 nm). The amount of substrate hydrolyzed was calculated from a standard curve of the amine product.
The phthalyl amidase activity reported in Table 2 was determined using the chromogenic substrate as in Example 3. A typical reaction mixture in a total volume of 1 ml contained 0.2 mg of the chromogenic substrate and an aliquot of phthalyl amidase in buffer A. The enzymatic reaction was conducted at 30° C. for 10-15 min. Formation of the reaction product was monitored with a spectrophotometer at 430 nm (or 380 nm) and quantitated from a standard curve of the product.
The concentrated and diafiltered Super-Q mainstream was applied to a hydroxylapatite column (3.2×40 cm) equilibrated in buffer A. After washing the column with this buffer, phthalyl amidase was eluted using a linear gradient of 0-500 mM phosphate buffer, pH 8.0. Fractions were assayed according to the chromogenic substrate method (see Example 3) and the active fractions were pooled (1 L) and concentrated (400 ml).

[5] = Optimum salt concentration for phthalyl amidase; type: biochemical; conditions: for Specific Activity: pH 8.2, 32° C.
Procedure: Test reactions were carried out similar to Example 6 except that buffer concentrations ranging from 10 to 200 mM at 32° C. were examined. All other conditions and analyses were the same.

[6] = Optimum reaction temperature of phthalyl amidase; type: biochemical
Procedure: Test reactions were carried out similar to Example 5 except that all incubations were performed in 50 mM potassium phosphate buffer at pH 8.2.Solutions of the substrate were pre-incubated for 5 minutes at temperatures between 2° and 60° C. The enzymatic reaction was initiated by the addition of phthalyl amidase and stopped by the addition of 1 ml methanol. Specific activity of the enzyme was determined by monitoring the hydrolysis of III by HPLC as in Example 5.

[7] = Stability of phthalyl amidase: effect of ionic strength and pH; type: physicochemical
Procedure: The stability of phthalyl amidase at pH values ranging from 6-9 was determined as described in Example 5 at 30° C. in both 20 and 200 mM potassium phosphate buffer. […] In 200 mM buffer, the enzyme retained at least 80% of its activity for 100 hours irrespective of the pH of the incubating medium.

B1: phthalyl amidase: specific enzyme which readily removes the phthalyl moiety from phthalyl-containing amides, from Xanthobacter agilis (protein)
chain: QAPSVHQHVAFTEEIGDLPDGSSYMIRVPENWNGVLIRDLDLVSGTSNSNAARYETMLKEGFAVAGTARHPLRQWQYDPAHEIENLNHVLDTFEENYGSPERVIQYGCSGGAHVSLAVAEDFSDRVDGSVALAAHTPVWIMNSFLDGWFSLQSLIGEYYVEAGHGPLSDLAITKLPNDGSSNSSGHGMEGDLPAAWRNAFTAANATPEGRARMALAFALGQWSPWLADNTPQPDLDDPEAIADSVYESAMRLAGSPGGEARIMFENAARGQQLSWNDDIDYADFWENSNPAMKSAVQELYDTAGLDLQSDIETVNSQPRIEASQYALDYWNTPGRNVIGDPEVPVLRLHMIGDYQIPYSLVQGYSDLISENNNDDLYRTAFVQSTGHCNFTAAESSAAIEVMMQRLDTGEWPSTEPDDLNAIAEASNTGTEARFMALDGWEIPEYNRTWKPE
- Reactive pH range [1]: 5.5 to 9.0 pH
- optimum pH [1]: 8.0±0.4 pH
- Optimal pH range for enzyme activity ([1]; 32° C., 50 mM potassium phosphate): ≥ 7.8 pH
- Specific Activity ([1]; pH 7.0, 32° C.): 125.4 μmol/min/μmol enzyme
- Specific Activity ([1]; pH 7.2, 32° C.): 130.4 μmol/min/μmol enzyme
- Specific Activity ([1]; pH 7.4, 32° C.): 155.2 μmol/min/μmol enzyme
- Specific Activity ([1]; pH 7.6, 32° C.): 172.5 μmol/min/μmol enzyme
- Specific Activity ([1]; pH 7.8, 32° C.): 184.2 μmol/min/μmol enzyme
- Specific Activity ([1]; pH 8.0, 32° C.): 195.3 μmol/min/μmol enzyme
- Specific Activity ([1]; pH 8.2, 32° C.): 201.2 μmol/min/μmol enzyme
- Specific Activity ([1]; pH 8.4, 32° C.): 208.0 μmol/min/μmol enzyme
- Specific Activity ([1]; pH 8.6, 32° C.): 181.7 μmol/min/μmol enzyme
- Specific Activity ([1]; pH 8.8, 32° C.): 185.1 μmol/min/μmol enzyme
- Specific Activity ([1]; pH 9.0, 32° C.): 33.1 μmol/min/μmol enzyme
- enzyme activity lost ([2]; 50 mM phosphate, above 40° C., within 48 hours): all enzyme activity was lost
- enzyme activity retained ([2]; 50 mM phosphate, below 25° C.): 90%
- enzyme activity retained ([2]; 200 mM phosphate, 40° C.): 30%
- isoelectric point [3]: ~5.5 pH
- Spec. Act. ([4]; Table 2, Ammonium Sulfate: 67-97% cut): 1.547 Units/mg
- Spec. Act. ([4]; Table 2, Crude Extract): 0.063 Units/mg
- Spec. Act. ([4]; Table 2, Hydroxylapatite): 5.52 Units/mg
- Spec. Act. ([4]; Table 2, Mono P): 7.2 Units/mg
- Spec. Act. ([4]; Table 2, Phenyl-Sepharose): 2.505 Units/mg
- Spec. Act. ([4]; Table 2, Q Sepharose): 1.214 Units/mg
- Spec. Act. ([4]; Table 3 (preparative), Crude Extract): 0.8 Units/mg
- Spec. Act. ([4]; Table 3 (preparative), Hydroxylapatite): 9.0 Units/mg
- Spec. Act. ([4]; Table 3 (preparative), Super-Q): 3.0 Units/mg
- effect of high salt concentration on specific activity ([5]; 10 to 200 mM buffer): markedly improved the specific activity
- Specific Activity ([5]; K Phosphate 10 mM): 148 μmol/min/μmol enzyme
- Specific Activity ([5]; K Phosphate 50 mM): 300 μmol/min/μmol enzyme
- Specific Activity ([5]; K Phosphate 100 mM): 350 μmol/min/μmol enzyme
- Specific Activity ([5]; K Phosphate 200 mM): 360 μmol/min/μmol enzyme
- Specific Activity ([5]; NH4 Acetate 10 mM): 25 μmol/min/μmol enzyme
- Specific Activity ([5]; NH4 Acetate 50 mM): 50 μmol/min/μmol enzyme
- Specific Activity ([5]; NH4 Acetate 100 mM): 75 μmol/min/μmol enzyme
- Specific Activity ([5]; NH4 Acetate 200 mM): 100 μmol/min/μmol enzyme
- Specific Activity ([5]; Tris-HCl 10 mM): 73 μmol/min/μmol enzyme
- Specific Activity ([5]; Tris-HCl 50 mM): 230 μmol/min/μmol enzyme
- Specific Activity ([5]; Tris-HCl 100 mM): 275 μmol/min/μmol enzyme
- Specific Activity ([5]; Tris-HCl 200 mM): 300 μmol/min/μmol enzyme
- enzyme activity outside temperature range ([6]; below 10° C. and above 50° C., pH 8.2): Little enzyme activity
- temperature of maximum reaction rate ([6]; pH 8.2, 50 mM potassium phosphate): 34 °C
- Optimum ionic strength [7]: ≥ 200 mM
- ionic strength that enhances pH and temperature stability [7]: above 20 mM
- optimum stability pH [7]: 8.0±0.4 pH
- pH range of stability [7]: 6-9 pH
- enzyme activity lost ([7]; 20 mM potassium phosphate, within 2 hours, 30° C., any pH 6-9): all enzyme activity as lost
- enzyme activity retained ([7]; 200 mM potassium phosphate, 100 hours, 30° C., pH 6-9): at least 80%
